# Source: the supplement of paper PMC10567573
# B1: EFHC1 (parent)
# chain: NIYYYLEDDSMSVIEPVVENSGIL
# Variants of: B1
# Assay: protein stability index of a GFP-peptide fusion (GPS, HEK-293T) (PSI 1-6); higher = more stable
# Conditions: c terminus: a fixed tail appended
# 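Also: lentivirally expressed fusions sorted by FACS into six bins by GFP to DsRed ratio, PSI derived from sequencing read proportions per bin multiplied by bin number.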
row,Variant,protein stability index
1,S10F,2.3
2,S10W,2.02
3,S10P,2.03
4,S10Y,1.9
5,S10A,2.02
6,S10C,1.71
7,S10M,2.13
8,S10L,1.14
9,S10I,2.1
10,S10E,2.57
11,S10Q,2.05
12,S10K,2.18
13,S10G,2.08
14,S10D,2.36
15,S10N,3.24
16,S10V,1.68
17,S10R,3.15
18,S10T,1.93
19,S10H,2.09
20,D9L,1.68
21,D9N,1.69
22,D9I,1.56
23,D9A,2.09
24,D9P,2.02

row,Variant,protein stability index
1,D9Y,4.3
2,D9Q,2.88
3,D9R,2.09
4,D9T,1.37
5,D9C,1.76
6,D9K,1.83
7,D9W,1.54
8,D9S,1.68
9,D9G,2.12
10,D9F,2.08
11,D9E,2.11
12,D9H,2.13
13,Y4K,2.66
14,Y4D,2.74
15,Y4I,1.49
16,Y4Q,2.39
17,Y4V,1.24
18,Y4W,2.99
19,Y4T,2.91
20,Y4N,2.35
21,Y4R,2.51
22,Y4A,2.12
23,Y4C,2.31
24,Y4M,2.18

row,Variant,protein stability index
1,Y4F,1.85
2,Y4L,1.42
3,Y4S,3.48
4,Y4P,4.01
5,Y4G,3.49
6,Y4E,2.78
7,Y4H,2.33
8,I2W,2.35
9,I2Y,2.07
10,Y3A,2.85
11,Y3C,2.9
12,Y3I,2.23
13,Y3D,4.08
14,Y3P,3.39
15,Y3M,2.17
16,Y3K,2.72
17,Y3Q,3.12
18,Y3F,2.07
19,Y3R,3.04
20,Y3G,3.43
21,Y3S,3.2
22,Y3V,2.38
23,Y3H,2.81
24,Y3E,3.76

row,Variant,protein stability index
1,Y3L,2.15
2,Y3N,3.38
3,Y3T,3.64
4,Y3W,1.82
5,L6A,3.01
6,L6W,1.52
7,L6D,3.26
8,L6R,2.93
9,L6Q,2.84
10,L6P,4.08
11,L6V,2.23
12,L6G,3.65
13,L6E,2.88
14,L6H,3.03
15,L6F,1.72
16,L6K,2.68
17,L6N,3.57
18,L6Y,2.22
19,L6M,2.25
20,L6T,2.71
21,L6S,2.5
22,L6I,2.23
23,L6C,2.24
24,D8C,2.56

row,Variant,protein stability index
1,D8M,2.71
2,D8Q,1.91
3,D8P,2.23
4,D8T,1.83
5,D8W,4.45
6,D8S,2.6
7,D8Y,2.03
8,D8H,1.89
9,D8A,1.94
10,D8K,1.6
11,D8F,2.17
12,D8E,1.94
13,D8G,2.47
14,D8V,3.11
15,D8R,2.35
16,D8N,2.01
17,Y5Q,2.92
18,Y5T,2.79
19,Y5P,3.83
20,Y5V,2.39
21,Y5E,3.62
22,Y5S,3.23
23,Y5C,2.45
24,Y5M,2.36

row,Variant,protein stability index
1,Y5W,1.75
2,Y5L,2.51
3,Y5N,2.78
4,Y5K,3.41
5,Y5H,2.69
6,Y5D,3.64
7,Y5G,3.27
8,Y5R,3.35
9,Y5F,1.94
10,Y5A,3.1
11,Y5I,1.92
12,M11P,3.39
13,M11L,2.07
14,M11I,2.51
15,M11N,3.06
16,M11T,2.38
17,M11S,2.46
18,M11V,2.2
19,M11F,1.7
20,M11Q,2.55
21,M11H,2.56
22,M11K,3.24
23,M11G,2.05
24,M11E,2.68

row,Variant,protein stability index
1,M11R,2.32
2,M11W,1.76
3,M11A,2.75
4,M11D,3.39
5,M11C,2.19
6,E7Q,1.94
7,E7P,1.92
8,E7F,1.13
9,E7D,1.89
10,E7M,2.09
11,E7I,2.12
12,E7A,1.4
13,E7W,1.41
14,E7R,2.52
15,E7Y,2.31
16,E7L,2.33
17,E7H,1.3
18,E7G,1.65
19,E7K,1.91
20,E7C,2.43
21,E7S,1.46
22,E7T,2.38
23,E7N,2.72
